In US20090285807A1 (METHERESIS TRANSLATIONAL RESEARCH, published 2009):

B1: recombinant AntiMET-R produced by carcinoma cell lines transduced with the bi-directional lentiviral vector carrying AntiMET-R cDNAs (antibody, mouse IgG2a, kappa, V domains shown)
VH: QVQLQQPGTELVKPGASVKLSCKASGYTFTSYWIHWVKQRPGQGLEWIGEINPSSGRTNYNEKFKNKVTVTVDKSSTTAYMQLSNLTSEDSAVYYCASRGYWGQGTTLTVSS
VL: DIVLTQSPASLAVSLGQRATISCKASQSVDYDGGSYMSWFQQRPGQPPKLLISAASNLESGIPARFSGSGSGTDFTLNIHPVEEEDVATYYCQQSYEDPLTFGAGTKLELKR
B2: AntiMET-R, anti-Met monoclonal antibody produced by the hybridoma cell line ICLC PD 05006 (antibody, mouse IgG2a, kappa, V domains shown)
VH: B1 VH
VL: B1 VL
notes: Mouse monoclonal antibody from a hybridoma; They may include leader peptides; also called purified AntiMET-R

How the values were obtained:
[1] = target: T1, Hepatocyte Growth Factor Receptor (HGFR, Met receptor), full length, endogenous in human tumor cells (GTL-16) (human, UniProt P08581 25-1390); assay: immunoprecipitation of Met receptor from cell lysates, Western blot with anti-Met C-terminal antibody (FIG. 11A)
T1 construct: whole, on cells; The mature receptor is a disulfide-linked alpha/beta heterodimer cleaved from one precursor; also called HGF receptor
T1 sequence (P08581 25-1390): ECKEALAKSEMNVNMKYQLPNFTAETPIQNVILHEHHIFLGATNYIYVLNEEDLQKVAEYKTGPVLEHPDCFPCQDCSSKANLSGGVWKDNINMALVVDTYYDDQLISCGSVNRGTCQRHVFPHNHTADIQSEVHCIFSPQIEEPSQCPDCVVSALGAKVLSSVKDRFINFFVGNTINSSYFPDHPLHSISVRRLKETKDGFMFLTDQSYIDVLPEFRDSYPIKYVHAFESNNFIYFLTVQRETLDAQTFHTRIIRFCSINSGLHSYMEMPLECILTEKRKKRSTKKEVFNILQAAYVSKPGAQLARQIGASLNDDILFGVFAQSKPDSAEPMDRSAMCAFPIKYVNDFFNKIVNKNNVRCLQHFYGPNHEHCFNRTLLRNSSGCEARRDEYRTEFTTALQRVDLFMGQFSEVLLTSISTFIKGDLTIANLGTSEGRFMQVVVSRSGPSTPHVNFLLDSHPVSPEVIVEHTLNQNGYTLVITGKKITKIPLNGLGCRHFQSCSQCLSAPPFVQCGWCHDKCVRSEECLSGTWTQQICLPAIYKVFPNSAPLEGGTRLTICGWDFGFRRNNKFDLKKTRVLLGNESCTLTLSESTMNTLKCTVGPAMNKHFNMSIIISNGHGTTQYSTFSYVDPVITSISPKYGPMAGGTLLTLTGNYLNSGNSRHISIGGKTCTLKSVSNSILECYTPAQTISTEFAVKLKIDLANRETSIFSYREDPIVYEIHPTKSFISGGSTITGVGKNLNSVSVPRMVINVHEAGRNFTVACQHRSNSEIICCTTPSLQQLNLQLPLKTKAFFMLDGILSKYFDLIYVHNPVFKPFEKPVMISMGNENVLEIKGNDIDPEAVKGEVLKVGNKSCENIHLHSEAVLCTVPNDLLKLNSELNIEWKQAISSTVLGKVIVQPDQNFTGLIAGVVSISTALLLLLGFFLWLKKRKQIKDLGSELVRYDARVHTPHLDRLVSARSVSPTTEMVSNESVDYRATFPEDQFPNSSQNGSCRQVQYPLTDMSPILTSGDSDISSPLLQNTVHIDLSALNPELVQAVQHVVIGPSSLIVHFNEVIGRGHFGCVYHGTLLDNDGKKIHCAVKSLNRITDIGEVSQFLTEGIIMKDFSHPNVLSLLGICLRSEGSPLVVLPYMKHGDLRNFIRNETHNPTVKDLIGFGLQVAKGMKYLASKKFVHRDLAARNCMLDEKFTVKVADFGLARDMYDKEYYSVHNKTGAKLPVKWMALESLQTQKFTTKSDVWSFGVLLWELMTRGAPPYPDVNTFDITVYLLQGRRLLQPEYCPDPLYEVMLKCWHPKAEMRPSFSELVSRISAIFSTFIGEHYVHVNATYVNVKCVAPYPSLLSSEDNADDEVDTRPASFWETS
Experimental: FIG. 11: The recombinant AntiMET-R binds with high affinity the extracellular domain of Met. (A) Western blot analysis of cell lysates containing the Met Receptor immunoprecipitated with the AntiMET-R derived from different sources (hybridoma or genetically modified carcinoma cell line). The immunoprecipitation was performed incubating Seph. Prot. G with cell culture supernatants from 1: Hybridoma producing unrelated MAb; 2 Hybridoma producing AntiMET-R MAb; 3: MDA-MB 435 cells infected with lentiviral vector carrying cDNAs for AntiMET-R MAb 4: MDA-MB 435 cells not infected. Samples were subjected to SDS-PAGE under reducing condition and the corresponding filters were probed with an anti-Met antibody directed against the c-Terminal tail of the receptor. (B) Binding assay of the AntiMET-R and the recombinant AntiMET-R to the extracellular domain of the Met Receptor. 96 wells plate coated with purified MET extracellular domain fused to the Fc domain derived from Human Ig (100 ng/well) was incubated with increasing concentrations of purified AntiMET-R or recombinant AntiMET-R (from 0 to 5.5 nM). […] To control the specificity of binding we performed the same assay using wells coated with Fc-Ron (a chimera protein generated fusing the Fc domain of Human Ig to the extracellular domain of the Ron receptor, a protein belonging to the Met receptor family).

[2] = target: T1, Hepatocyte Growth Factor Receptor …; assay: flow cytometry on GTL-16 cells (50 ug/ml antibody) and immunofluorescence on fixed GTL-16 cells (2.5 ug/ml)
Experimental: For Flow cytometry analysis, 10⁵ GTL-16 cells were detached with PBS-EDTA 0.025%, washed with PBS and incubated with 50 μg/ml of antiMet-R antibody or the same amount of isotype control mouse Ig for 15′ RT. After 2 washes with PBS, the cells were incubated with 15 μg/ml of FITC conjugated Goat anti-mouse Ig (Jackson Immunoresearch laboratories) for 15′ RT. Cells were than washed, re-suspended in PBS-5% BSA and analysed by flow cytometry (Becton Dickinson, Mountain View, Calif.). GTL-16 cells were fixed in methanol:aceton (3:1) for 5′ on ice then blocked with 2% goat serum in PBS for 30′ at RT. […] Analysis of the samples was performed with a fluorescence microscope (DM-IRB, Leica Microsystems).
GTL-16 cells, a human gastric carcinoma cell line, were incubated with the AntiMET-R antibody. […] Infact the mean of fluorescence intensity in cells labelled with the antiMet-R antibody was increased respect to ctrl cells (FIG. 20, panel A). GTL-16 cells were also incubated, after fixation, with the antiMet-R antibody to perform an immunofluoresce analysis.

[3] = target: T2, Decoy Met (aminoacids 1-932), soluble recombinant entire extracellular region of human Met, myc- and … (human, UniProt P08581 25-932); assay: immunoprecipitation from conditioned medium, Western blot with anti-myc
T2 construct: range 25-932; Numbering follows GenBank X54559; also called myc-tagged Decoy Met; Met ectodomain
T2 sequence (P08581 25-932 limits assumed): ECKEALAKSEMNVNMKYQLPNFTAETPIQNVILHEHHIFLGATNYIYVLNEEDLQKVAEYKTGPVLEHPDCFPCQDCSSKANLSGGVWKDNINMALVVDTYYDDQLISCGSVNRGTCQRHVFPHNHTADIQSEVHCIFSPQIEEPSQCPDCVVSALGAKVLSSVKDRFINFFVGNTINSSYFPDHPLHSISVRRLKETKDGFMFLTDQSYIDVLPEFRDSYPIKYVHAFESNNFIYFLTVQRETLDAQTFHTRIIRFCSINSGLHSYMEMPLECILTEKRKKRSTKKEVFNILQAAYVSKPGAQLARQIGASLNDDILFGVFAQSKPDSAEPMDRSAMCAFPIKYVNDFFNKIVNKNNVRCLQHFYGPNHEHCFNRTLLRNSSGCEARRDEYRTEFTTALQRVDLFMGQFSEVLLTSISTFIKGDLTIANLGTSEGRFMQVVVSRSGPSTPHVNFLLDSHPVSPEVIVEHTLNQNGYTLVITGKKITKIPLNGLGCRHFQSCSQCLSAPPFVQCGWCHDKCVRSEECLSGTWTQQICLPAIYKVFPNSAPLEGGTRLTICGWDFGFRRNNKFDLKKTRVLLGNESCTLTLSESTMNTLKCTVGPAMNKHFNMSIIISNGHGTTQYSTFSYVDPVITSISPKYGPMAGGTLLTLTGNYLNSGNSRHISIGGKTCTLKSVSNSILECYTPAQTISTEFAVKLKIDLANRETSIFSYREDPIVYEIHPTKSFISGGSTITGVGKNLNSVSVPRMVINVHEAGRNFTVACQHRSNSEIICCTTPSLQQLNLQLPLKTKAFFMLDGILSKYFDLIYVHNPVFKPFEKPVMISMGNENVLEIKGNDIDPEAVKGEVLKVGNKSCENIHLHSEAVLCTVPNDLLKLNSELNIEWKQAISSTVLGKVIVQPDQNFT
Excerpt: (§1) FIG. 18: AntiMET-R specifically recognizes an epitope located in the IPTs region. Conditioned media of MDA-MB-435 cells transduced with lentiviral vector particles encoding for myc-tagged Decoy Met, myc-tagged SEMA PSI and myc-tagged PSI IPT1-4 were immunoprecipitated with the antiMET-R antibody and detected by Western blot using a biotinylated anti-myc antibody (right panel). Equal amounts of conditioned media were loaded as a control for protein expression (left panel). CTRL: conditioned medium of MDA-MB-435 cells transduced with an empty lentiviral vector. Decoy Met: conditioned medium of MDA-MB-435 cells transduced with a lentiviral vector expressing the entire HGFR extracellular domain. PSI-IPT: conditioned medium of MDA-MB-435 cells transduced with a lentiviral vector expressing PSI, IPT-1, IPT-2, IPT-3, IPT-4 domains of the HGFR. SEMA-PSI: conditioned medium of MDA-MB-435 cells transduced with a lentiviral vector expressing Sema and PSI domains of the HGFR. On the right molecular weight in KD are shown.
(§2) Conditioned media of MDA-MB-435 cells transduced with myc-tagged Decoy Met, SEMA PSI and PSI IPT were immunoprecipitated with the AntiMET-R antibody and detected by Western blot using a biotinylated anti-myc antibody (FIG. 18, right panel). […]

[4] = target: T3, SEMA PSI (aminoacids 1-562), truncated form of Decoy Met containing the SEMA domain and the PSI region, myc- … (human, UniProt P08581 25-562); assay: as above
T3 construct: range 25-562; also called myc-tagged SEMA PSI
T3 sequence (P08581 25-562 limits assumed): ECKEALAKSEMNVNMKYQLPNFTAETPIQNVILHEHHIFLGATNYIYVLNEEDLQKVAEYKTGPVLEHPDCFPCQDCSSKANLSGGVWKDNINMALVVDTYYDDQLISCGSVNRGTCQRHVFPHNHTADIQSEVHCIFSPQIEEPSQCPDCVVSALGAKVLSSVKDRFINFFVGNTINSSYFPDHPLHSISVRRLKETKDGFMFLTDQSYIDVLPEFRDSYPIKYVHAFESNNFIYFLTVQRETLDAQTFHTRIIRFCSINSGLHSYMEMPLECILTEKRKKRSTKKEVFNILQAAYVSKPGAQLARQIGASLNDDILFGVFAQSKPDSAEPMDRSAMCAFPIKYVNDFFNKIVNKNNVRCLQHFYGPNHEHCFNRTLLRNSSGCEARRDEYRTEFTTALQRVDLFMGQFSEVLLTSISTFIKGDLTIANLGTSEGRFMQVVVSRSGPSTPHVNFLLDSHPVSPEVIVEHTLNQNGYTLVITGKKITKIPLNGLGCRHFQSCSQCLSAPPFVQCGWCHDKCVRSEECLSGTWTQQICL
Excerpt: as §1, §2

Row | Binder | binding result [1] | binding result [2] | binding result [3] | binding result [4]
1 | B1 | binds |  |  | 
2 | B2 |  | binds | binds | no binding
